The experiment concerns the target ErbB4 on primary adult rat ventricular cardiomyocytes (rat) (UniProt Q62956). The experiment can be described thus: cell-based or functional assay.
Sequence of UniProt Q62956 (Q62956 26-1308): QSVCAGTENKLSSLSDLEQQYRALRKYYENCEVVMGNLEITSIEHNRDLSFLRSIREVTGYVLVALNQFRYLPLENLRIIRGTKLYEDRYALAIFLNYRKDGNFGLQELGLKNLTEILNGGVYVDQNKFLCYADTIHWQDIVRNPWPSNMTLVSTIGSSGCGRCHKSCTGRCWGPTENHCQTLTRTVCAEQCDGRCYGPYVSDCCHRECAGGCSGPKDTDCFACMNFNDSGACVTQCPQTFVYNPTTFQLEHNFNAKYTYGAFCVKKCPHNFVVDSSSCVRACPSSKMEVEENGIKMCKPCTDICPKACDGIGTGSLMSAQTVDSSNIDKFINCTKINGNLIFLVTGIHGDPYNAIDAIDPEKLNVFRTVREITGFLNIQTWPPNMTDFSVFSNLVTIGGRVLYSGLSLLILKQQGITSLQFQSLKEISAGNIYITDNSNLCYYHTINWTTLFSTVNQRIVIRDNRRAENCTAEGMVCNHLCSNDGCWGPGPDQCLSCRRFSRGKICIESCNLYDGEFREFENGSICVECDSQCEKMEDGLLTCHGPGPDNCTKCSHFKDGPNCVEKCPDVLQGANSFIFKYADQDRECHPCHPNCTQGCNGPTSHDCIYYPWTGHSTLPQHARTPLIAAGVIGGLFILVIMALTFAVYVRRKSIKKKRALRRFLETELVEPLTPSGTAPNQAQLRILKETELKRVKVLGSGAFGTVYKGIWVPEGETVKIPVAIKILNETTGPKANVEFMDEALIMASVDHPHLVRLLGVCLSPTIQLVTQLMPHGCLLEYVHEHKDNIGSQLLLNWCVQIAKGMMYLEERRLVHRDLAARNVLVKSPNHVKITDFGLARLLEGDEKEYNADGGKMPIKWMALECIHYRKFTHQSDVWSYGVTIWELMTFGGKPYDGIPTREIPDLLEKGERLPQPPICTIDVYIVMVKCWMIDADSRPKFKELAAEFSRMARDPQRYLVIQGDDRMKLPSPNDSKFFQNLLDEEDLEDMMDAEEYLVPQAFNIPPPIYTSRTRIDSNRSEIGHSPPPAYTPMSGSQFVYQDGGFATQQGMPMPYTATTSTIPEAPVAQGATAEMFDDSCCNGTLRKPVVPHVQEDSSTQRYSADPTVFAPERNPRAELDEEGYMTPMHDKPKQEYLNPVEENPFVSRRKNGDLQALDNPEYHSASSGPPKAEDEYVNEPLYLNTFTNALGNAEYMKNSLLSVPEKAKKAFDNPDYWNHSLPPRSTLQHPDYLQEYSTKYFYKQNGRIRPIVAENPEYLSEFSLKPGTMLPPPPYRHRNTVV

“NRG1 (EGF-like domain, amino acids 176-246), R&D Systems (from UniProt Q02297-11 121-191) (ligand)” came in with a half-maximal stimulation EC50 of NRG1-induced DNA synthesis (BrdU uptake) in primary adult rat ventricular cardiomyocytes of 40 pM.

Source of the values: US20120121557A1.
